# Measured values reported in publication PMC3866644 (RNA, 2014).
# T1: His6 fusion Prp39, full-length (yeast, UniProt P39682 1-629)
# T1 sequence: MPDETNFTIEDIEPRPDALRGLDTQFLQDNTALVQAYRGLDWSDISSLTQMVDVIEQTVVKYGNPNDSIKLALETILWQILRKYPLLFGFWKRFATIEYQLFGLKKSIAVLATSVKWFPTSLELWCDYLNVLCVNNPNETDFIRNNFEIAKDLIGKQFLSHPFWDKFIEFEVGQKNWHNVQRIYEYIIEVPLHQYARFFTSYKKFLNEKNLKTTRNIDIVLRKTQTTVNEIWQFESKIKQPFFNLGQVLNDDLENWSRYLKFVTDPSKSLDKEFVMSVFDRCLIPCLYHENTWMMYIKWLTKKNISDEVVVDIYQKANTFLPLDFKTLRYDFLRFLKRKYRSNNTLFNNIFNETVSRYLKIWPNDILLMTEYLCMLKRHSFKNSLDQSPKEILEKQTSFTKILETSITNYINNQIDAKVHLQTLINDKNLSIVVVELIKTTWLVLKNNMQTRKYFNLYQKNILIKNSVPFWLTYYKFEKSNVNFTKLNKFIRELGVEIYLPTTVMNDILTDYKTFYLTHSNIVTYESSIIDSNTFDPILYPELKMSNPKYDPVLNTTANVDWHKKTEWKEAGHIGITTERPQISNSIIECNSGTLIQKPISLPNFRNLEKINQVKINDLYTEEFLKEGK
# T2: His6 fusion Prp40, full-length (yeast, UniProt P33203 1-583)
# T2 sequence: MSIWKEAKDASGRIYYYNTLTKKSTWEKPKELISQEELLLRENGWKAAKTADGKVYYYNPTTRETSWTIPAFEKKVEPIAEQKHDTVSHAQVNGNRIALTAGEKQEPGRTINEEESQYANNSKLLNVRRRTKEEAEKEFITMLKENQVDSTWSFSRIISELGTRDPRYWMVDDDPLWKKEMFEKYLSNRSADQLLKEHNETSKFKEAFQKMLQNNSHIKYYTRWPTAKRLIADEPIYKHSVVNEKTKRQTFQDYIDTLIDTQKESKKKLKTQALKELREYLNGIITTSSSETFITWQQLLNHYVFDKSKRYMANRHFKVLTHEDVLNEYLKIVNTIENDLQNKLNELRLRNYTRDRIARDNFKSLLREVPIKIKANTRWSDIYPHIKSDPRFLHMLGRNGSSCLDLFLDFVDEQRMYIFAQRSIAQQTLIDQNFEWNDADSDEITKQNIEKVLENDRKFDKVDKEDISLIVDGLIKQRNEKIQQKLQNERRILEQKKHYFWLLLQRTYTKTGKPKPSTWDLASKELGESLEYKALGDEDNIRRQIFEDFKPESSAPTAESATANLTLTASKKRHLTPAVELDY
# T3: His6 fusion Prp28 (yeast, UniProt P23394 1-588)
# T3 sequence: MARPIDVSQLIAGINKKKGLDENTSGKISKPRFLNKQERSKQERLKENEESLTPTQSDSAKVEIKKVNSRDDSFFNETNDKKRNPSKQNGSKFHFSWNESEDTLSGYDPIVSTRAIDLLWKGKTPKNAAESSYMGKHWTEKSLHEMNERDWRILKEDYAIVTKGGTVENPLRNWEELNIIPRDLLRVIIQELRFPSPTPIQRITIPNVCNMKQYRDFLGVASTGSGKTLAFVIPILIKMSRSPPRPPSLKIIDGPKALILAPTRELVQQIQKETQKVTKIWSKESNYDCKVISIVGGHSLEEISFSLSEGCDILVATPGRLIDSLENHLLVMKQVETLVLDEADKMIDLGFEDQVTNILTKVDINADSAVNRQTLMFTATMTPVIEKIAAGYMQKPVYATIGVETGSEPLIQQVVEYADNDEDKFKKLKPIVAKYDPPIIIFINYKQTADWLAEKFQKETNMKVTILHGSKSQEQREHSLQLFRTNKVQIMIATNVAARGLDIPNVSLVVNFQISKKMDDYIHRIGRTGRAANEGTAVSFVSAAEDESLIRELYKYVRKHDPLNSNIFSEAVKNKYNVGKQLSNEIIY
# Legend:
# Assay in all cases: pull-down
# [1] = biological target: T1, His6 fusion Prp39, full-length
# [2] = biological target: T2, His6 fusion Prp40, full-length
# His6 fusion Prp28 = biological target: T3, His6 fusion Prp28
Binder,binding result [1],binding result [2],binding result (His6 fusion Prp28)
GST-fusion Prp8-NTD(P263L/W279G) (domain or fragment) MSGLPPPPPGFEEDSDLALPPPPPPPPGYEIEELDNPMVPSSVNEDTFLPPPPPPPSNFEINAEEIVDFTLPPPPPPPGLDELETKAEKKVELHGKRKLDIGKDTFVTRKSRKRAKKMTKKAKRSNLYTPKAEMPPEHLRKIINTHSDMASKMYNTDKKAFLGALKYLPHAILKLLENMPHPWEQAKEVKVLYHTSGAITFVNETPRVIEPVYTAQWSATWIAMRREKRDRTHFKRMRFPPFDDDEPPLSYEQHIENIEPLDLINLPLDSQDDEYVKDGLYDSRPLEEDSKKVNGTSYKKWSFDLPEMSNLYRLSTPLRDEVTDKNYYYL,binds,binds,–
GST-fusion Prp8-NTD(D273G) (domain or fragment) MSGLPPPPPGFEEDSDLALPPPPPPPPGYEIEELDNPMVPSSVNEDTFLPPPPPPPSNFEINAEEIVDFTLPPPPPPPGLDELETKAEKKVELHGKRKLDIGKDTFVTRKSRKRAKKMTKKAKRSNLYTPKAEMPPEHLRKIINTHSDMASKMYNTDKKAFLGALKYLPHAILKLLENMPHPWEQAKEVKVLYHTSGAITFVNETPRVIEPVYTAQWSATWIAMRREKRDRTHFKRMRFPPFDDDEPPLSYEQHIENIEPLDPINLPLDSQDGEYVKDWLYDSRPLEEDSKKVNGTSYKKWSFDLPEMSNLYRLSTPLRDEVTDKNYYYL,binds,binds,–

# Continued, values first:
binding result [1],binding result [2],binding result (His6 fusion Prp28),Binder
binds,binds,–,GST-fusion Prp8-NTD(R226G) (domain or fragment) MSGLPPPPPGFEEDSDLALPPPPPPPPGYEIEELDNPMVPSSVNEDTFLPPPPPPPSNFEINAEEIVDFTLPPPPPPPGLDELETKAEKKVELHGKRKLDIGKDTFVTRKSRKRAKKMTKKAKRSNLYTPKAEMPPEHLRKIINTHSDMASKMYNTDKKAFLGALKYLPHAILKLLENMPHPWEQAKEVKVLYHTSGAITFVNETPRVIEPVYTAQWSATWIAMRGEKRDRTHFKRMRFPPFDDDEPPLSYEQHIENIEPLDPINLPLDSQDDEYVKDWLYDSRPLEEDSKKVNGTSYKKWSFDLPEMSNLYRLSTPLRDEVTDKNYYYL
binds,binds,binds,"GST-fusion Prp8-NTD (Prp8 residues 1-330), wild-type sequence (domain or fragment) not shown"
